{"source": "patent US20090233850A1", "key": {"[1]": {"target": "recombinant monomeric HIV-1 YU2 gp120, produced in Drosophila S2 cells (HIV-1 YU2) (UniProt P35961)", "experiment": "SPR, Biacore 3000, about 250 RU YU2 gp120 amine-coupled to CM5 chip, CVN in flow, 2B6R reference cell"}, "[2]": {"target": "recombinant monomeric HIV-1 YU2 gp120, produced in Drosophila S2 cells (HIV-1 YU2) (UniProt P35961)", "experiment": "ELISA, 100 ng YU2 gp120 adsorbed on the plate, serial dilutions of CVN, detection with polyclonal anti-CVN, BSA background subtracted"}, "[3]": {"target": "recombinant monomeric HIV-1 YU2 gp120, produced in Drosophila S2 cells (HIV-1 YU2) (UniProt P35961)", "experiment": "competition ELISA on plate-adsorbed YU2 gp120; competitor mAb 2G12 at 50 ug/ml; percent of control without CVN"}, "[4]": {"target": "recombinant monomeric HIV-1 YU2 gp120, produced in Drosophila S2 cells (HIV-1 YU2) (UniProt P35961)", "experiment": "SPR, Biacore 3000, from the response at 300 nM against the 33 RU expected for 1:1"}, "[5]": {"target": "gp120 on HIV-1 BaL (R5) virus (HIV-1 BaL)", "experiment": "cell-based or functional assay"}}, "data": [{"substance": "cyanovirin-N (CVN), recombinant, periplasmic expression in E. coli, hexa-histidine tagged (from UniProt P81180 1-101)", "values": [{"measurement": "SPR response at 300 nM", "setting": "[1]", "result": 95, "unit": "RU"}, {"measurement": "EC50 (read off the curve)", "setting": "[2]", "result": 10, "unit": "nM"}, {"measurement": "IC50 (read off the curve)", "setting": "[3]", "result": 30, "unit": "nM"}, {"measurement": "binding stoichiometry (CVN:gp120)", "setting": "[4]", "result": 3}]}, {"substance": "unlinked CVN and 12p1 (non-covalent mixture) (from UniProt P81180 1-101)", "values": [{"measurement": "boost of efficacy (% inhibition of HIV-1 BaL) of the mixture against CVN alone at the two lowest concentrations, 12p1 at 16-31 uM", "setting": "[5]", "result": 2, "unit": "fold"}, {"measurement": "synergy index of the combination of CVN and 12p1, inhibition of HIV-1 BaL replication in PM-1 cells (gp120 ELISA after 7 days)", "setting": "[5]", "result": "0.3 to 0.5"}]}]}
